Data on two substances can be found in publication doi:10.1101/2021.03.09.434581.

“And” between values parts separate entries of the source, which are not always exact repeats. Identical values can stand only once.

Assay [1] concerns the target Vibrio cholerae ParD2 N-terminal domain as found in the crystal (Vibrio cholerae). Put plainly: crystal structure.
In assay [2] the target is Vibrio cholerae ParD2 antitoxin, full length (Vibrio cholerae). Put plainly: SEC-SAXS.
The target is the same in assay [3]. The experiment in a line: SEC-MALS.

“Vibrio cholerae ParD2 N-terminal domain as found in the crystal (domain or fragment)”: the stoichiometry N in assay [1] came to 16.

“Vibrio cholerae ParD2 antitoxin, full length (natural protein)”: the stoichiometry N in assay [2] is 12; in assay [3] it was 10 and 12 and 8.
